{"source": "patent US7825091B2", "about": "“Modification of feeding behaviour” (Imperial Innovations Limited, priority 2003, dated 2010)", "molecules": {"B1": {"name": "glicentin (peptide, UniProt P01275 21-89, looked up)", "Glicentin": "RSLQDTEEKSRSFSASQADPLSDPDQMNEDKRHSQGTFTSDYSKYLDSRRAQDFVQWLMNTKRNRNNIA", "modifications": "Glicentin", "notes": "proglucagon-derived peptide purchased from Peninsula Laboratories"}}, "key": {"[1]": {"assay": "ICV injection, food intake in 24-h fasted rats (studies 1a, 2a)", "format": "in vivo, rat", "settings": "ICV 3 nmol, vs saline", "text": "(§1) Animals were handled daily after recovery from surgery until completion of the studies.\n(§2) Animals had permanent stainless steel guide cannulas (Plastics One, Roanoke, Va.) stereotactically implanted ICV (intracerebraventricularly) or iPVN (into the hypothalamic paraventricular nucleus)."}, "[2]": {"assay": "iPVN injection, food intake in 24-h fasted rats (studies 1b, 2b)", "format": "in vivo, rat", "settings": "iPVN 1 nmol, any time point", "description": "as §1, §2\nTherefore, exendin-4 was injected iPVN at a dose of 0.03 nmol."}}}
{"molecule": "B1", "values": [{"measurement": "food intake (refeeding) after ICV injection", "setting": "[1]", "value": "failed to affect food intake at any time point"}, {"measurement": "food intake after iPVN injection", "setting": "[2]", "value": "failed to affect food intake at any time point"}]}
